Laboratory results published in PMC3495951.

Target: EGFP-H2B (UniProt P06899)
Assay: FRET or BRET; FLIM-FRET in living cells at 37°C; EGFP fusion as donor, mCherry fusion as acceptor; two-photon excitation at 890 nm; FRET efficiency = 1 - (tauDA/tauD), tauD from cells with mCherry-C1; control cells and TSA-treated cells

FRET efficiency (minor population): 6%
Substance: mCherry-SRSF1 (from UniProt Q07955 1-248) (natural protein)
